Assay results from the supplement of paper PMC10126150.
± gives the standard deviation of the averaged measurements.

Tested on: ATP
Experiment: switch fluorescence ratio, 500 uM ATP over buffer (Cy3 cluster intensity, sum of 5 cycles each) (fold (ratio)); higher = stronger signal-on switching upon ATP binding; sequences stand for … in TCGTCGGCAGCGTCAGATGTGTATAAGAGACAGTTTTTTTTTTTTTTTTTTTTTTTTT…TC
Settings: aptamer strand: ATP DNA aptamer (quencher-CACCTGGGGGAGTATTGCGGAGGAAGG + anchor), 100 nM annealed; ATP concentration: 500 uM
Method in brief: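 Between each of five buffer/ATP cycles, the flow-cell was stripped with NaOH and re-annealed. Each cycle imaged Cy3-labelled switching-strand clusters, annealed to 100 nM quencher-labelled ATP aptamer on a modified Illumina MiSeq flow-cell, first in selection buffer and then after 15 min with 500 uM ATP at 22 °C. The fluorescence ratio is summed target-cycle over summed buffer-cycle Cy3 intensity per cluster, averaged per switch-domain sequence, with clusters outside 100-1000 RFU excluded.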
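Further: ATP exposure 15 min at 22 °C before imaging.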

Sequence | switch fluorescence ratio
TTGGTTATCG | 0.97068 ± 0.00069
TTCTTGGGGT | 0.975 ± 0.056
GGTTCAACAT | 0.985 ± 0.049
AATTTGACAT | 1.03 ± 0.02
AGCTTTCCTA | 0.9963 ± 0.007
CGAAGTTATG | 1.06 ± 0.03
CGTCGTGATA | 1.2 ± 0.014
ATACGGAGGC | 1.03 ± 0.1
TAGTTCGGTT | 1.01 ± 0.016
ATGTCAGGGA | 0.994 ± 0.019
AAGCATGGGA | 1.01 ± 0.022
ATTTTATTAG | 1.01 ± 0.021
AATTGGTGTT | 0.985 ± 0.025
CATGGCAACC | 1.158 ± 0.0094
CGTGTAGTTT | 1.01 ± 0.036
CCATGGAGGT | 1.01 ± 0.034
CCAGAATTCG | 0.98 ± 0.024
TGTTCTCAAA | 0.98346 ± 0.00079
TATATGCGTG | 0.9932 ± 0.0039
TGGTTTGGGT | 0.986 ± 0.026
AGTATTGCTC | 1.01 ± 0.024
TAAAAGACTG | 0.992 ± 0.094
GACGTCAGGG | 0.997 ± 0.052
TCAGCGGGGG | 1.11 ± 0.16
GACGGGTATA | 1.36 ± 0.47

Sequence | switch fluorescence ratio
GAGGGCAGAC | 1.24 ± 0.075
TAGGCAGAGT | 1.01 ± 0.023
AATGAAAATC | 1.08 ± 0.15
GACCCGATTA | 1.02 ± 0.034
TTTGTTAAGG | 1.01 ± 0.019
TTTTCATGAG | 1.01 ± 0.012
CGGGCATATA | 1.1969 ± 8.5e-05
AAGGTTGCAA | 1.01 ± 0.011
TCGAGGGAGG | 0.994 ± 0.075
CCGCCACCTG | 1.56 ± 0.059
AAAAATTTAG | 0.994 ± 0.034
ATAGCGGAGA | 1 ± 0.036
ATTTGTTTAC | 1.011 ± 0.0065
CTTAGAAGTT | 1.01 ± 0.027
ATTGGTCTGC | 1.02 ± 0.04
TTGGAAAGTT | 1.01 ± 0.028
AATTTGGTAC | 1.068 ± 0.0027
TACTTAGCCC | 1.07 ± 0.022
TAATTAGTGT | 0.979 ± 0.013
ATATTGATGT | 1.01 ± 0.037
AATTTAGGAG | 1.01 ± 0.051
CAGGGTAGAG | 1 ± 0.043
CCGTAGTGGT | 2.9 ± 1.4
TTGAGGGTAA | 0.99263 ± 0.00084
CCAAGGTGGA | 1.1 ± 0.12

Sequence | switch fluorescence ratio
CGGGAGAGGA | 0.988 ± 0.033
CACCGGGCCT | 1.02 ± 0.016
GGGGAGTAGC | 0.999 ± 0.03
GGCAGCGGGG | 0.991 ± 0.019
TTATGGCTTT | 0.985 ± 0.018
GCGGGTTAAA | 0.991 ± 0.012
TCGTTTGGTT | 1.04 ± 0.026
CAAAAGTAAC | 1.07 ± 0.032
TTTTTTCTCG | 1.04 ± 0.078
GCGGTTCAGC | 0.985 ± 0.014
ATTTTTAGTG | 1.008 ± 0.0068
TGGCTCTGGG | 1.04 ± 0.033
TTATAGGCGC | 1.03 ± 0.029
CGGTAATGTT | 1 ± 0.027
ATAAGGTAG | 1.004 ± 0.0026
TGGTTACGTT | 0.983 ± 0.018
TGGGTAGTGT | 1 ± 0.026
AGGTATGCGT | 0.985 ± 0.041
TGGGAGGTTG | 0.994 ± 0.04
AGGGGAAGTG | 0.955 ± 0.07
GACTTGCTGA | 1 ± 0.049
GATTGTACGA | 1.01 ± 0.031
ATTTAACGGG | 1.006 ± 0.0056
CAGGTAAGGC | 1.04 ± 0.033
GCTTGTGTGA | 0.999 ± 0.01

Sequence | switch fluorescence ratio
TCGGAACTCG | 0.9824 ± 0.0063
TTGCTTCTAG | 0.979 ± 0.043
ATGCGTCGCG | 0.986 ± 0.025
TTAATTTATG | 0.976 ± 0.035
ATATTATTTC | 1.006 ± 0.0058
GTGATTCTTG | 0.9745 ± 0.0022
GATCTATGTT | 0.996 ± 0.018
TCGTTGCATG | 1.01 ± 0.065
AAACAGATAA | 1.04 ± 0.084
TAATTGGTGG | 1.01 ± 0.029
AATCGCGGGC | 1.09 ± 0.024
TAGTTAATCA | 0.991 ± 0.01
TTTTGAGCAT | 1.07 ± 0.12
GCGATGGAAT | 1.1282 ± 6e-05
CGGGGGCAAG | 1.07 ± 0.016
TCGGGGGTCA | 0.9781 ± 0.0051
TTGGTTTATC | 1 ± 0.015
AGTCTGGTGC | 1.04 ± 0.032
AGTATGTCGA | 1.01 ± 0.015
TGTTGAGTAT | 0.9738 ± 0.0072
TTGGGTTATT | 0.979 ± 0.029
CAGCATAAAG | 1.02 ± 0.057
GATGAGCCTA | 1.01 ± 0.073
TTTTATTCGT | 1.01 ± 0.025
ACGCTTTATT | 1.08 ± 0.032

Sequence | switch fluorescence ratio
CGATGGTCGT | 0.975 ± 0.028
TTTTAACGGG | 0.998 ± 0.027
AGCCTGTTTT | 0.9861 ± 0.0011
TTTTTTTCT | 1.01 ± 0.046
GATGAACGTT | 0.984 ± 0.041
GTTGGTCTGG | 0.943 ± 0.048
CAATAATATG | 0.993 ± 0.029
TTTTAATTAG | 1.01 ± 0.018
GGAATAGATG | 1.026 ± 0.0015
TGGTAGGTGG | 1.017 ± 0.0049
TGAGTGGGGT | 1.02 ± 0.031
GTTAATTTAG | 0.987 ± 0.01
TAGTTGTCCG | 1.02 ± 0.12
CGCGGTGTGG | 1.03 ± 0.022
TTGGGGTGCT | 0.992 ± 0.035
TGATTTTAGA | 0.974 ± 0.052
TTTCGAAACG | 1.12 ± 0.21
TTTTAAGAGA | 1.01 ± 0.017
ATTGTTCTCC | 1.04 ± 0.057
CATGAATGGT | 0.962 ± 0.022
GCCTCATAGG | 0.994 ± 0.019
TTTGTAAAGT | 0.976 ± 0.019
TGAAAATCTT | 1.18 ± 0.25
TTTACAGTTG | 0.96 ± 0.014
TTTCCGCGGA | 0.97 ± 0.024

Sequence | switch fluorescence ratio
TTTTTCGTTG | 0.997 ± 0.049
ACCTGGCATC | 1.122 ± 0.0016
GGTACCAGGC | 1.019 ± 0.0021
GTGTTTAGTG | 0.9787 ± 0.0029
ATATACCGTC | 1.05 ± 0.028
TTATTTTTGG | 0.989 ± 0.027
CTAGCCCAGC | 1.02 ± 0.026
TTTTAGGCCT | 1.045 ± 0.0027
TTTTGTGGGC | 1.01 ± 0.055
TAAAAAGGTG | 1.12 ± 0.11
AGTGTGAGTT | 1.025 ± 0.01
AGAAGTTTCG | 1.011 ± 0.0068
TACCCGGACA | 1.091 ± 0.0053
AGCTTATGGT | 0.962 ± 0.049
AATGGTTTGG | 0.985 ± 0.013
TAATGACTTG | 0.953 ± 0.031
TAACGGGCTG | 1.07 ± 0.054
TAGTCTTAGG | 0.973 ± 0.049
ATTCGCATGT | 1.15 ± 0.04
CACATTGTAG | 1.007 ± 0.0086
AGGGGCGTAG | 1 ± 0.025
AGGGAGGGGA | 1.03 ± 0.061
GCGCTGCATT | 1.06 ± 0.037
ATACGCTGGT | 0.9993 ± 0.0042
TATTATGGCA | 1.02 ± 0.08

Sequence | switch fluorescence ratio
TGGGGCACAT | 1.02 ± 0.022
GTCAACGCCG | 1.02 ± 0.018
AACGTTTAGG | 1.015 ± 0.0099
TGATTGGGTA | 1 ± 0.019
GATGTTTAGT | 1.04 ± 0.018
GACTTATTTA | 1.01 ± 0.043
GCGGTTTCAT | 0.9984 ± 0.0098
TTGCGGGGTG | 1.01 ± 0.045
GATGCAAAGG | 1.131 ± 0.011
GTTGATATAG | 1 ± 0.021
AGACTAAAAG | 0.986 ± 0.015
TTATAGCACC | 1.06 ± 0.021
CGGTTACGAC | 1.02 ± 0.021
CGTTAGTGCG | 1 ± 0.025
TTTAAAGGGG | 1.05 ± 0.14
TTTTTACTCG | 0.9965 ± 0.005
GGGTCTGGAG | 1 ± 0.034
AAAAGAGAAG | 1 ± 0.011
ATGGGGGAA | 0.997 ± 0.042
AAGGCTAATT | 0.979 ± 0.033
CGAGCTGTTT | 1.02 ± 0.0099
TATGATGGGC | 0.9577 ± 0.0057
ATGATTGACC | 1.083 ± 0.0026
AAATACACGA | 1.06 ± 0.029
TTTGTTGTTA | 0.994 ± 0.031

Sequence | switch fluorescence ratio
GAGGTTGGGA | 1.01 ± 0.012
TGTGTGCAAT | 1.0784 ± 0.001
TAGGTGCAGG | 1.08 ± 0.068
TTTTGTTGGT | 1 ± 0.028
AGGAAACCCG | 0.994 ± 0.064
AGTAAGGTGT | 1.13 ± 0.095
AGTGTAATTT | 0.973 ± 0.02
GGGGGTAGGG | 1.03 ± 0.073
ATAATTCTAT | 0.9819 ± 0.008
CTAGTGCTCG | 0.971 ± 0.022
ATTCGGTTAT | 1.01 ± 0.045
TTCAAATTGG | 1 ± 0.043
GTTGCGATGA | 1.02 ± 0.013
ATTGAGGCAA | 1.22 ± 0.066
GGTCGGGGGT | 1.03 ± 0.039
CTATTGGGCT | 1.01 ± 0.012
TGATCAAATG | 0.989 ± 0.023
AAGGTGTGCG | 1.02 ± 0.024
CACAAGGTAT | 1.03 ± 0.033
ATCCGGGACC | 1.06 ± 0.02
TTATGGCTGA | 0.988 ± 0.017
GAGTTGAATT | 0.993 ± 0.046
ATTACGCCA | 1.17 ± 0.11
ATAAGGGGGA | 0.998 ± 0.022
AGTTAGCTT | 1.02 ± 0.072
